PMC11900867
Read-outs that look alike come from different tables or passages of the source.

Key:
[1] = biological target: Coxsackievirus B3 (CVB3) 3CD protein (uncleaved 3C^pro-3D^pol) with Cys147Ala, Gly55Ala, Asp58Ala, Val63Ala (coxsackievirus B3 (CVB3)); assay: mass photometry
[2] = biological target: Coxsackievirus B3 (CVB3) 3CD protein (uncleaved 3C^pro-3D^pol) with Cys147Ala, Gly55Ala, Asp58Ala, Val63Ala (coxsackievirus B3 (CVB3)); assay: mass photometry; remark: listed apart in the source
[3] = biological target: Coxsackievirus B3 (CVB3) 3C^pro protease, protease-inactive mutant (Cys147Ala) with Gly55Ala, Asp58Ala, Val63Ala (coxsackievirus B3 (CVB3)); assay: SEC
[4] = biological target: Coxsackievirus B3 (CVB3) 3C^pro protease, protease-inactive mutant (Cys147Ala) with Gly55Ala, Asp58Ala, Val63Ala (coxsackievirus B3 (CVB3)); assay: mass photometry

Row | Substance | stoichiometry N [1] | percent of total counts in the peak of 3CD dimer with one cloverleaf RNA [2] [%] | stoichiometry N [2] | stoichiometry N [3] | stoichiometry N [4]
1 | Coxsackievirus B3 (CVB3) 3CD protein (uncleaved 3C^pro-3D^pol) with Cys147Ala, Gly55Ala, Asp58Ala, Val63Ala (enzyme) | 2 | 19 to 23 | 2 |  | 
2 | Coxsackievirus B3 (CVB3) 3C^pro protease, protease-inactive mutant (Cys147Ala) with Gly55Ala, Asp58Ala, Val63Ala (enzyme) |  |  |  | 2 | 2
